Measured values reported in IntAct's records for PubMed 23969831.

B1: Protrudin (Homo sapiens), Q5T4F4 (parent)
chain: MQTSEREGSGPELSPSVMPEAPLESPPFPTKSPAFDLFNLVLSYKRLEIYLEPLKDAGDGVRYLLRWQMPLCSLLTCLGLNVLFLTLNEGAWYSVGALMISVPALLGYLQEVCRARLPDSELMRRKYHSVRQEDLQRGRLSRPEAVAEVKSFLIQLEAFLSRLCCTCEAAYRVLHWENPVVSSQFYGALLGTVCMLYLLPLCWVLTLLNSTLFLGNVEFFRVVSEYRASLQQRMNPKQEEHAFESPPPPDVGGKDGLMDSTPALTPTEDLTPGSVEEAEEAEPDEEFKDAIEETHLVVLEDDEGAPCPAEDELALQDNGFLSKNEVLRSKVSRLTERLRKRYPTNNFGNCTGCSATFSVLKKRRSCSNCGNSFCSRCCSFKVPKSSMGATAPEAQRETVFVCASCNQTLSK
B2: Protrudin (Homo sapiens), Q5T4F4 (parent)
chain: B1 chain
partner: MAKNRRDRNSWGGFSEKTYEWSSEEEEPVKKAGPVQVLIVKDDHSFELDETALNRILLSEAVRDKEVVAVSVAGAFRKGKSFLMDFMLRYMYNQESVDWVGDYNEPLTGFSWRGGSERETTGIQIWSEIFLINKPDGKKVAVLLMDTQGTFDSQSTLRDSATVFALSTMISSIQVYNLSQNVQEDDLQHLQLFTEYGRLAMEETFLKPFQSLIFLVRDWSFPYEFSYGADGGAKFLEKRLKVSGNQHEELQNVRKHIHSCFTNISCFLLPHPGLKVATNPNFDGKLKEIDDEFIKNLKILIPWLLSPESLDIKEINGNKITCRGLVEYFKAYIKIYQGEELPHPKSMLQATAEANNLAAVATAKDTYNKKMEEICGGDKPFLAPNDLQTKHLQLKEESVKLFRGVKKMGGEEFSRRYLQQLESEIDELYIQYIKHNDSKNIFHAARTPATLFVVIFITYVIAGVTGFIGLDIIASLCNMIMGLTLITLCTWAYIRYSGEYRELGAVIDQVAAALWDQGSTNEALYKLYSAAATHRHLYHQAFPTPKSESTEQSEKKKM
B3: Atlastin-1 (Homo sapiens), Q8WXF7 (parent)
chain: B2 partner
partner: B1 chain

Variants of: B1
Details: with reep5_human REEP5, Q00765
reep5_human REEP5, Q00765, sequence (Q00765 whole entry): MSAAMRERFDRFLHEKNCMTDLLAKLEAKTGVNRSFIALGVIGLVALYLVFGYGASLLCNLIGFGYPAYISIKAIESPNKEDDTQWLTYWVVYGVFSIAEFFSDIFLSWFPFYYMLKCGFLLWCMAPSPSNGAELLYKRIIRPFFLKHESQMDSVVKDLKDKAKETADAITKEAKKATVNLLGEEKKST

Variant	effect of a mutation on the interaction
MQTSEREGSGPELSPSVMPEAPLESPPFPTKSPAFDLFNLVLSYKRLEIYLEPLKDAGDGVRYLLRWQMPLCSLLTCLGLNVLFLTLNEGAWYSVGALMISVPALLGYLQEVCRARLPDSELMRRKYHSVRQEDLQRGRLSRPEAVAEVKSFLIQLEAFLSRLCCTCEAAYRVLHWENPVVSSQFYGALLVTVCMLYLLPLCWVLTLLNSTLFLGNVEFFRVVSEYRASLQQRMNPKQEEHAFESPPPPDVGGKDGLMDSTPALTPTEDLTPGSVEEAEEAEPDEEFKDAIEETHLVVLEDDEGAPCPAEDELALQDNGFLSKNEVLRSKVSRLTERLRKRYPTNNFGNCTGCSATFSVLKKRRSCSNCGNSFCSRCCSFKVPKSSMGATAPEAQRETVFVCASCNQTLSK [G191V]	with no effect
MQTSEREGSGPELSPSVMPEAPLESPPFPTKSPAFDLFNLVLSYKRLEIYLEPLKDAGDGVRYLLRWQMPLCSLLTCLGLNVLFLTLNEGAWYSVGALMISVPALLGYLQEVCRARLPDSELMRRKYHSVRQEDLQRGRLSRPEAVAEVKSFLIQLEAFLSRLCCTCEAAYRVLHWENPVVSSQFYGALLGTVCMLYLLALCWVLTLLNSTLFLGNVEFFRVVSEYRASLQQRMNPKQEEHAFESPPPPDVGGKDGLMDSTPALTPTEDLTPGSVEEAEEAEPDEEFKDAIEETHLVVLEDDEGAPCPAEDELALQDNGFLSKNEVLRSKVSRLTERLRKRYPTNNFGNCTGCSATFSVLKKRRSCSNCGNSFCSRCCSFKVPKSSMGATAPEAQRETVFVCASCNQTLSK [P200A]	decreasing interaction strength

Variants of: B2
Details: with atla1_human ATL1, Q8WXF7

Variant	effect of a mutation on the interaction
MQTSEREGSGPELSPSVMPEAPLESPPFPTKSPAFDLFNLVLSYKRLEIYLEPLKDAGDGVRYLLRWQMPLCSLLTCLGLNVLFLTLNEGAWYSVGALMISVPALLGYLQEVCRARLPDSELMRRKYHSVRQEDLQRGRLSRPEAVAEVKSFLIQLEAFLSRLCCTCEAAYRVLHWENPVVSSQFYGALLVTVCMLYLLPLCWVLTLLNSTLFLGNVEFFRVVSEYRASLQQRMNPKQEEHAFESPPPPDVGGKDGLMDSTPALTPTEDLTPGSVEEAEEAEPDEEFKDAIEETHLVVLEDDEGAPCPAEDELALQDNGFLSKNEVLRSKVSRLTERLRKRYPTNNFGNCTGCSATFSVLKKRRSCSNCGNSFCSRCCSFKVPKSSMGATAPEAQRETVFVCASCNQTLSK [G191V]	with no effect

Variants of: B3
Details: with zfy27_human ZFYVE27, Q5T4F4

Variant	effect of a mutation on the interaction
MAKNRRDRNSWGGFSEKTYEWSSEEEEPVKKAGPVQVLIVKDDHSFELDETALNRILLSEAVRDKEVVAVSVAGAFRKGKSFLMDFMLRYMYNQESVDWVGDYNEPLTGFSWRGGSERETTGIQIWSEIFLINKPDGKKVAVLLMDTQGTFDSQSTLRDSATVFALSTMISSIQVYNLSQNVQEDDLQHLQLFTEYGRLAMEETFLKPFQSLIFLVRDWSFPYEFSYGADGGAKFLEKRLKVSGNQHEELQNVRKHIHSCFTNISCFLLPHPGLKVATNPNFDGKLKEIDDEFIKNLKILIPWLLSPESLDIKEINGNKITCRGLVEYFKAYIKIYQGEELPHPKSMLQATAEANNLAAVATAKDTYNKKMEEICGGDKPFLAPNDLQTKHLQLKEESVKLFRGVKKMGGEEFSRRYLQQLESEIDELYIQYIKHNDSKNIFHAARTPATLFVVIFITYVIAGVTGFIALDIIASLCNMIMGLTLITLCTWAYIRYSGEYRELGAVIDQVAAALWDQGSTNEALYKLYSAAATHRHLYHQAFPTPKSESTEQSEKKKM [G469A]	with no effect
MAKNRRDRNSWGGFSEKTYEWSSEEEEPVKKAGPVQVLIVKDDHSFELDETALNRILLSEAVRDKEVVAVSVAGAFRKGKSFLMDFMLRYMYNQESVDWVGDYNEPLTGFSWRGGSERETTGIQIWSEIFLINKPDGKKVAVLLMDTQGTFDSQSTLRDSATVFALSTMISSIQVYNLSQNVQEDDLQHLQLFTEYGRLAMEETFLKPFQSLIFLVRDWSFPYEFSYGADGGAKFLEKRLKVSGNQHEELQNVRKHIHSCFTNISCFLLPHPGLKVATNPNFDGKLKEIDDEFIKNLKILIPWLLSPESLDIKEINGNKITCRGLVEYFKAYIKIYQGEELPHPKSMLQATAEANNLAAVATAKDTYNKKMEEICGGDKPFLAPNDLQTKHLQLKEESVKLFRGVKKMGGEEFSRRYLQQLESEIDELYIQYIKHNDSKNIFHAARTPATLFVVIFITYVIAGVTGFIGLDIIASLCNMIMGLTLITLCTWAYIRYSGEYRELGAVIDQVAAALWDQGATNEALYKLYSAAATHRHLYHQAFPTPKSESTEQSEKKKM [S519A]	with no effect
MAKNRRDRNSWGGFSEKTYEWSSEEEEPVKKAGPVQVLIVKDDHSFELDETALNRILLSEAVRDKEVVAVSVAGAFRKGASFLMDFMLRYMYNQESVDWVGDYNEPLTGFSWRGGSERETTGIQIWSEIFLINKPDGKKVAVLLMDTQGTFDSQSTLRDSATVFALSTMISSIQVYNLSQNVQEDDLQHLQLFTEYGRLAMEETFLKPFQSLIFLVRDWSFPYEFSYGADGGAKFLEKRLKVSGNQHEELQNVRKHIHSCFTNISCFLLPHPGLKVATNPNFDGKLKEIDDEFIKNLKILIPWLLSPESLDIKEINGNKITCRGLVEYFKAYIKIYQGEELPHPKSMLQATAEANNLAAVATAKDTYNKKMEEICGGDKPFLAPNDLQTKHLQLKEESVKLFRGVKKMGGEEFSRRYLQQLESEIDELYIQYIKHNDSKNIFHAARTPATLFVVIFITYVIAGVTGFIGLDIIASLCNMIMGLTLITLCTWAYIRYSGEYRELGAVIDQVAAALWDQGSTNEALYKLYSAAATHRHLYHQAFPTPKSESTEQSEKKKM [K80A]	with no effect
MAKNRRDRNSWGGFSEKTYEWSSEEEEPVKKAGPVQVLIVKDDHSFELDETALNRILLSEAVRDKEVVAVSVAGAFRKGKSFLMDFMLRYMYNQESVDWVGDYNEPLTGFSWRGGSERETTGIQIWSEIFLINKPDGKKVAVLLMDTQGTFDSQSTLRDSATVFALSTMISSIQVYNLSQNVQEDDLQHLQLFTEYGRLAMEETFLKPFQSLIFLVRDWSFPYEFSYGADGGAKFLEKRLKVSGNQHEELQNVRKHIHSCFTNISCFLLPHPGLKVATNPNFDGKLKEIDDEFIKNLKILIPWLLSPESLDIKEINGNKITCRGLVEYFKAYIKIYQGEELPHPKSMLQATAEANNLAAVATAKDTYNKKMEEICGGDKPFLAPNDLQTKHLQLKEESVKLFRGVKKMGGEEFSRRYLQQLESEIDELYIQYIKHNDSKNIFHAARTPATLFVVIFITYVIAGVTGFIGLDIIASLCNMIMGLTLITLCTWAYIWYSGEYRELGAVIDQVAAALWDQGSTNEALYKLYSAAATHRHLYHQAFPTPKSESTEQSEKKKM [R495W]	with no effect
